Measured values reported in paper PMC7697625 (Biomolecules, 2020).

Target: the molecule itself
Assay: AUC; sedimentation velocity, 20 uM (0.25 mg/mL), 20 mM sodium phosphate pH 8.0, 200 mM NaCl, 20 C, 50,000 RPM; monomer and dimer

B1: TNIP1 AHD1-UBAN construct (TNIP1^417-509) (domain or fragment, human, UniProt Q15025 417-509, looked up)
chain: QRLNKALEEALSIQTPPSSPPTAFGSPEGAGALLRKQELVTQNELLKQQVKIFEEDFQRERSDRERMNEEKEELKKQVEKLQAQVTLSNAQLK
notes: pET28a construct; For NMR the protein was 15N-labelled (minimal medium with 15NH4Cl); also called TNIP1 AHD1-UBAN region; AHD1-UBAN domain; source: E. coli BL-21(DE3) Rosetta 2, heat lysis, purified (HisTrap HP, Superdex 75); not shown: His6, C-terminal, kept
  stoichiometry N: 2
